Reference: publication PMC11799434 (2025)

Target: MT-100
Test: BLI

Kd: 2.5 nM
koff: 0.0011 s⁻¹
B1: extracellular domain of human Tie2 fused with Fc (hTie2-ECD-Fc) (Fc fusion)
chain: AMDLILINSLPLVSDAETSLTCIASGWRPHEPITIGRDFEALMNQHQDPLEVTQDVTREWAKKVVWKREKASKINGAYFCEGRVRGEAIRIRTMKMRQQASFLPATLTMTVDKGDNVNISFKKVLIKEEDAVIYKNGSFIHSVPRHEVPDILEVHLPHAQPQDAGVYSARYIGGNLFTSAFTRLIVRRCEAQKWGPECNHLCTACMNNGVCHEDTGECICPPGFMGRTCEKACELHTFGRTCKERCSGQEGCKSYVFCLPDPYGCSCATGWKGLQCNEACHPGFYGPDCKLRCSCNNGEMCDRFQGCLCSPGWQGLQCEREGIQRMTPKIVDLPDHIEVNSGKFNPICKASGWPLPTNEEMTLVKPDGTVLHPKDFNHTDHFSVAIFTIHRILPPDSGVWVCSVNTVAGMVEKPFNISVKVLPKPLNAPNVIDTGHNFAVINISSEPYFGDGPIKSKKLLYKPVNHYEAWQHIQVTNEIVTLNYLEPRTEYELCVQLVRRGEGGEGHPGPVRRFTTASIGLPPPRGLNLLPKSQTTLNLTWQPIFPSSEDDFYVEVERRSVQKSDQQNIKVPGNLTSVLLNNLHPREQYVVRARVNTKAQGEWSEDLTAWTLSDILPPQPENIKISNITHSSAVISWTILDGYSISSITIRYKVQGKNEDQHVDVKIKNATITQYQLKGLEPETAYQVDIFAENNIGSSNPAFSHELVTLPESQAPADLGGGKMLL
